# Source: patent publication US7534592 (Takeda / Millennium, dated 2009)
# Molecular target: the molecule itself
# Test: analytical size-exclusion chromatography; self-association (homodimer)
protein,measurement,value
"recombinant ACC2 catalytic domain (carboxyltransferase domain of human Acetyl-Coenzyme A Carboxylase 2, residues 1715-2483 of SEQ. ID No. 1) with a … (enzyme, one acetylation observed by mass spectrometry (position not given), The entries describe its self-association into the homodimer (two copies of this chain); Expressed in Sf9 insect cells; In the crystal it is in complex with acetyl-CoA, a small molecule; also called carboxyltransferase domain of ACC2; ID No. 3) not shown",binding result,binds
